Measurements taken from the supplement of paper PMC9112550, “Optimization of the antimicrobial peptide Bac7 by deep mutational scanning” (BMC Biology, 2022).

System: Escherichia coli TOP10
Assay: shrunken log2 fold change of peptide-encoding DNA abundance (4.5 h post-induction vs induction); higher = less antimicrobial activity (less host growth inhibition)
Conditions: time post-induction: 4.5 h; library: site-saturation at positions 5, 18, 19, 20
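Also: peptides expressed intracellularly from a pBAD plasmid library in pooled LB shake-flask culture, induced with 0.3% L-arabinose, DNA abundance read by NGS, three biological replicates, DESeq2 with apeglm shrinkage.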

Sequence | shrunken log2 fold change
RRIRLRPPRLPRPRPRPNNMPRP | -0.703
RRIRARPPRLPRPRPRPLLCPRP | 0.612
RRIRMRPPRLPRPRPRPTSWPRP | 0.834
RRIRSRPPRLPRPRPRPTNTPRP | 0.0794
RRIRVRPPRLPRPRPRPIYEPRP | -0.184
RRIRRRPPRLPRPRPRPERCPRP | 0.322
RRIRCRPPRLPRPRPRPSRGPRP | 0.333
RRIRIRPPRLPRPRPRPNHDPRP | -0.832
RRIRIRPPRLPRPRPRPSCSPRP | -0.83
RRIRKRPPRLPRPRPRPKEPPRP | 0.074
RRIRQRPPRLPRPRPRPDVRPRP | -0.023
RRIRCRPPRLPRPRPRPIHTPRP | -0.527
RRIRDRPPRLPRPRPRPEGIPRP | -0.0215
RRIRKRPPRLPRPRPRPVTRPRP | 0.754
RRIRTRPPRLPRPRPRPAAMPRP | 0.154
RRIRYRPPRLPRPRPRPDICPRP | -0.0244
RRIRRRPPRLPRPRPRPMHIPRP | 0.238
RRIRERPPRLPRPRPRPMTLPRP | -0.000163
RRIRARPPRLPRPRPRPIQFPRP | 0.166
RRIRDRPPRLPRPRPRPGKKPRP | -0.00968
RRIRIRPPRLPRPRPRPICIPRP | -0.127
RRIRMRPPRLPRPRPRPHDTPRP | 0.048
RRIRQRPPRLPRPRPRPAMKPRP | -0.204
RRIRYRPPRLPRPRPRPEWCPRP | -0.244
RRIRQRPPRLPRPRPRPGEHPRP | -0.0241

Sequence | shrunken log2 fold change
RRIRKRPPRLPRPRPRPIAPPRP | 0.718
RRIRQRPPRLPRPRPRPSCMPRP | -0.508
RRIRFRPPRLPRPRPRPKEWPRP | -0.00364
RRIRSRPPRLPRPRPRPPNFPRP | 0.291
RRIRHRPPRLPRPRPRPSSHPRP | -1.3
RRIRRRPPRLPRPRPRPGVVPRP | 0.281
RRIRWRPPRLPRPRPRPLSWPRP | 0.0993
RRIRSRPPRLPRPRPRPFPHPRP | -0.16
RRIRVRPPRLPRPRPRPEMMPRP | 0.0629
RRIRFRPPRLPRPRPRPEYVPRP | -0.15
RRIRIRPPRLPRPRPRPCSWPRP | -0.31
RRIRMRPPRLPRPRPRPQQVPRP | 0.00763
RRIRDRPPRLPRPRPRPSWMPRP | -0.166
RRIRSRPPRLPRPRPRPEMFPRP | -0.0055
RRIRVRPPRLPRPRPRPMCSPRP | -0.237
RRIRTRPPRLPRPRPRPMSIPRP | -0.143
RRIRDRPPRLPRPRPRPSYRPRP | 0.0164
RRIRLRPPRLPRPRPRPPPYPRP | 0.388
RRIRERPPRLPRPRPRPFNKPRP | -0.383
RRIRNRPPRLPRPRPRPCRTPRP | -0.124
RRIRWRPPRLPRPRPRPVYDPRP | -0.15
RRIRFRPPRLPRPRPRPVVPPRP | -0.196
RRIRKRPPRLPRPRPRPPKVPRP | 0.613
RRIRERPPRLPRPRPRPITYPRP | -0.546
RRIRARPPRLPRPRPRPGMAPRP | 0.709

Sequence | shrunken log2 fold change
RRIRLRPPRLPRPRPRPLGDPRP | 0.015
RRIRLRPPRLPRPRPRPWTEPRP | -0.01
RRIRGRPPRLPRPRPRPQHYPRP | -0.167
RRIRSRPPRLPRPRPRPPVTPRP | -0.0798
RRIRKRPPRLPRPRPRPYDHPRP | -0.084
RRIRSRPPRLPRPRPRPPDYPRP | -0.0864
RRIRARPPRLPRPRPRPATQPRP | 0.437
RRIRTRPPRLPRPRPRPCAGPRP | -0.0463
RRIRLRPPRLPRPRPRPSCWPRP | 0.0662
RRIRSRPPRLPRPRPRPYTEPRP | -0.186
RRIRIRPPRLPRPRPRPEWHPRP | -0.514
RRIRVRPPRLPRPRPRPREPPRP | 0.947
RRIRPRPPRLPRPRPRPCGGPRP | 0.224
RRIRLRPPRLPRPRPRPFSDPRP | 0.0391
RRIRARPPRLPRPRPRPILMPRP | 0.143
RRIRCRPPRLPRPRPRPGRGPRP | 1.18
RRIRDRPPRLPRPRPRPSNQPRP | -0.315
RRIRTRPPRLPRPRPRPPYTPRP | -0.397
RRIRWRPPRLPRPRPRPDSLPRP | -0.12
RRIRSRPPRLPRPRPRPCQTPRP | 0.131
RRIRPRPPRLPRPRPRPIPRPRP | 0.449
RRIRMRPPRLPRPRPRPASDPRP | 0.869
RRIRDRPPRLPRPRPRPFSKPRP | -0.488
RRIRCRPPRLPRPRPRPKQQPRP | 0.143
RRIRGRPPRLPRPRPRPSYNPRP | 0.0742

Sequence | shrunken log2 fold change
RRIRYRPPRLPRPRPRPLDGPRP | -0.467
RRIRYRPPRLPRPRPRPKCHPRP | -0.139
RRIRFRPPRLPRPRPRPRDQPRP | 0.0987
RRIRDRPPRLPRPRPRPQSTPRP | -0.466
RRIRMRPPRLPRPRPRPEGFPRP | 2.81
RRIRPRPPRLPRPRPRPNNAPRP | -0.19
RRIRTRPPRLPRPRPRPQLMPRP | -0.137
RRIRMRPPRLPRPRPRPCPRPRP | 0.167
RRIRRRPPRLPRPRPRPTCMPRP | 0.315
RRIRWRPPRLPRPRPRPYKEPRP | -0.387
RRIRHRPPRLPRPRPRPLCIPRP | -0.165
RRIRFRPPRLPRPRPRPFFYPRP | -0.308
RRIRDRPPRLPRPRPRPQYGPRP | -0.414
RRIRMRPPRLPRPRPRPHREPRP | 0.104
RRIRSRPPRLPRPRPRPEVSPRP | 0.214
RRIRCRPPRLPRPRPRPFLYPRP | -0.513
RRIRRRPPRLPRPRPRPMPKPRP | 0.0841
RRIRPRPPRLPRPRPRPCWKPRP | -0.0855
RRIRTRPPRLPRPRPRPLKCPRP | -0.249
RRIRWRPPRLPRPRPRPLDRPRP | 0.146
RRIRCRPPRLPRPRPRPEKYPRP | -0.209
RRIRARPPRLPRPRPRPGEPPRP | 0.601
RRIRFRPPRLPRPRPRPAVVPRP | -0.231
RRIRHRPPRLPRPRPRPLERPRP | -0.0962
RRIRVRPPRLPRPRPRPRILPRP | -0.412

Sequence | shrunken log2 fold change
RRIRPRPPRLPRPRPRPQLEPRP | 0.376
RRIRIRPPRLPRPRPRPGMVPRP | 0.0533
RRIRERPPRLPRPRPRPLKHPRP | -0.425
RRIRPRPPRLPRPRPRPIHPPRP | 0.172
RRIRNRPPRLPRPRPRPFSYPRP | -0.171
RRIRSRPPRLPRPRPRPPEKPRP | 0.797
RRIRLRPPRLPRPRPRPHTGPRP | -0.158
RRIRSRPPRLPRPRPRPIRTPRP | -0.207
RRIRGRPPRLPRPRPRPMCIPRP | 0.166
RRIRDRPPRLPRPRPRPQSSPRP | 0.0176
RRIRCRPPRLPRPRPRPLMVPRP | -0.519
RRIRWRPPRLPRPRPRPFYWPRP | -0.151
RRIRDRPPRLPRPRPRPMYMPRP | -0.00623
RRIRRRPPRLPRPRPRPNMTPRP | -0.136
RRIRRRPPRLPRPRPRPDSDPRP | 0.021
RRIRHRPPRLPRPRPRPRDWPRP | 0.645
RRIRTRPPRLPRPRPRPAFKPRP | 0.143
RRIRDRPPRLPRPRPRPTVPPRP | -0.326
RRIRLRPPRLPRPRPRPQKHPRP | -0.299
RRIRVRPPRLPRPRPRPTAWPRP | 0.145
RRIRDRPPRLPRPRPRPHQDPRP | 0.00101
RRIRKRPPRLPRPRPRPCHPPRP | -0.336
RRIRVRPPRLPRPRPRPDLDPRP | 0.156
RRIRLRPPRLPRPRPRPWVQPRP | -0.118
RRIRYRPPRLPRPRPRPTNLPRP | -0.661

Sequence | shrunken log2 fold change
RRIRHRPPRLPRPRPRPYIFPRP | -0.446
RRIRNRPPRLPRPRPRPQLTPRP | -0.026
RRIRGRPPRLPRPRPRPNNHPRP | -0.15
RRIRVRPPRLPRPRPRPHVTPRP | -0.304
RRIRGRPPRLPRPRPRPMSRPRP | 0.00829
RRIRVRPPRLPRPRPRPTGEPRP | 0.187
RRIRWRPPRLPRPRPRPQSNPRP | -0.124
RRIRERPPRLPRPRPRPPTGPRP | 0.161
RRIRCRPPRLPRPRPRPQVIPRP | -0.386
RRIRLRPPRLPRPRPRPGLHPRP | -0.401
RRIRNRPPRLPRPRPRPGMLPRP | -0.184
RRIRCRPPRLPRPRPRPPEWPRP | 0.575
RRIRGRPPRLPRPRPRPKDRPRP | 0.89
RRIRRRPPRLPRPRPRPSHVPRP | 0.151
RRIRYRPPRLPRPRPRPFCSPRP | -0.425
RRIRERPPRLPRPRPRPQWGPRP | -0.252
RRIRARPPRLPRPRPRPQYIPRP | -0.566
RRIRWRPPRLPRPRPRPVMWPRP | 0.236
RRIRWRPPRLPRPRPRPDHSPRP | -0.198
RRIRQRPPRLPRPRPRPILGPRP | 0.0906
RRIRDRPPRLPRPRPRPHVCPRP | -0.00727
RRIRKRPPRLPRPRPRPNWRPRP | 1.32
RRIRERPPRLPRPRPRPGKFPRP | -0.0178
RRIRERPPRLPRPRPRPGHAPRP | 0.304
RRIRKRPPRLPRPRPRPTQNPRP | 1.07
